Primed or numbered codes have the meaning given here. The star is where a group is joined. aldehyde′ = C-terminal aldehyde (aspartyl aldehyde); Cbz = O=C(OCc1ccccc1)*; CH2F = FC*

Experiment [1] concerns the target T1, Csp-8 (UniProt Q14790 217-374; Q14790 385-479, limits assumed). Briefly: continuous fluorogenic enzyme assay, 60 min, fit of AMC product formation to irreversible competitive inhibition model.
In experiment [2] the target is T2, Csp-1 (UniProt P29466 120-297; P29466 317-404, limits assumed).
T2 sequence (looked up) 1: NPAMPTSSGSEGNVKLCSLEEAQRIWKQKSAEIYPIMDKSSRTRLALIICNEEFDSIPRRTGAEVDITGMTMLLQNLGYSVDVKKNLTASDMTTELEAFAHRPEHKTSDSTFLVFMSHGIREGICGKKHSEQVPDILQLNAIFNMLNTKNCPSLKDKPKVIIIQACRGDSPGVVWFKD
T2 sequence (looked up) 2: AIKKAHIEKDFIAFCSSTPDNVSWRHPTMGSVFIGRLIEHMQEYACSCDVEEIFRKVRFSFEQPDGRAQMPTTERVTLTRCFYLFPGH
The experiment is described as above.

The target of experiment [3] is T3, Csp-6 (UniProt P55212 24-179; P55212 194-293, limits assumed).
T3 sequence (looked up) 1: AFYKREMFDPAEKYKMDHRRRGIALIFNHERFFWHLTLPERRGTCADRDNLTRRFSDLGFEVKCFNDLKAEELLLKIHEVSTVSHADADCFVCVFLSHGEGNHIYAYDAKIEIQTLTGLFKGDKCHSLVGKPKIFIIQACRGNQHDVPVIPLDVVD
T3 sequence (looked up) 2: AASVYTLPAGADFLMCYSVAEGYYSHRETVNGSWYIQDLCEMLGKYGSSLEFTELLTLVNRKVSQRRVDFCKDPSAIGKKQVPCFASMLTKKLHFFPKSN
The experiment is described as above.

For experiment [4], the target named is T4, Csp-3 (UniProt P42574 29-277, limits assumed).
T4 sequence (looked up): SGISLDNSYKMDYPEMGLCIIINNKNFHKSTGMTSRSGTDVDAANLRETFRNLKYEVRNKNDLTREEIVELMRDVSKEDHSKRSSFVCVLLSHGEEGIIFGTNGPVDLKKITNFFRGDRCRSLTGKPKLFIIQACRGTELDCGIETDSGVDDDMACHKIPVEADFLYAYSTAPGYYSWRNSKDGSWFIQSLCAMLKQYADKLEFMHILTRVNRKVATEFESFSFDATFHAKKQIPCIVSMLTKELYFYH
The description is as above.

Experiment [5] concerns the target T5, Csp-9 (Homo sapiens, UniProt P55211).
T5 sequence (P55211 1-315 limits assumed): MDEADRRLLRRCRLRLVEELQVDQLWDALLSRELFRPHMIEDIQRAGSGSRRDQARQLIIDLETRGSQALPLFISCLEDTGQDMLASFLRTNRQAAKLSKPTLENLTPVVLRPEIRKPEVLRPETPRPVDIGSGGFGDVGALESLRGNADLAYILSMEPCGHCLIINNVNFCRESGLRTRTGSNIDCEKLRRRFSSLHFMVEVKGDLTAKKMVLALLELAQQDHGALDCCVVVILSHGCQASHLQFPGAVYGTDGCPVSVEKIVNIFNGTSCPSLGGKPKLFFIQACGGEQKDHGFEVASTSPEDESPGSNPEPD
The experiment can be described thus: Fluorescence enzyme assay, IC50 determination. Type of experiment: biochemical. Conditions: 30 minutes preincubation at room temperature, AMC substrate.

The target of experiment [6] is T6, Csp-3 (Homo sapiens, UniProt P42574).
T6 sequence (P42574 29-175 limits assumed): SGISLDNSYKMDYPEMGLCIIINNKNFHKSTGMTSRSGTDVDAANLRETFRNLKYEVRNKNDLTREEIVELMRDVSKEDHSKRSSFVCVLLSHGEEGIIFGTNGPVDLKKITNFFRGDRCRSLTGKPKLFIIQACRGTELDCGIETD
Briefly: Fluorescence enzyme assay, IC50 determination. Format: biochemical. Conditions: recombinant enzyme, 30 minutes preincubation at room temperature, AMC substrate. The procedure:
(§1) Fluorescence enzyme assays detecting the activity of the compounds of Formula I utilizing the recombinant ICE and CPP32 enzymes are performed essentially according to Thornberry et al. (Nature 356:768:774 (1992)) and Nicholson et al. (Nature 376:37-43 (1995)) respectively, (herein incorporated by reference) in 96 well microtiter plates. The substrate is Acetyl-Tyr-Val-Ala-Asp-amino-4-methylcoumarin (AMC) (SEQ ID NO: 1) for the ICE assay and Acetyl-Asp-Glu-Val-Asp-amino-4-methylcoumarin (SEQ ID NO: 2) for the CPP32, Mch2, Mch3 and Mch5 assays. Enzyme reactions are run in ICE buffer (25 mM HEPES, 1 mM EDTA, 0.1% CHAPS, 10% sucrose, pH 7.5) containing 2 mM DTT at room temperature in duplicate. The assays are performed by mixing the following components: • 50 μL ICE, Mch2, Mch5, CPP32 (18.8, 38, 8.1 and 0.153 nM concentrations, respectively) or Mch3 (1 unit) enzyme in ICE buffer containing either 8.0 (ICE, Mch2, Mch3, CPP32) or 20 (Mch5) mM DTT; • 50 μL compound of Formula I or ICE buffer (control); and • 100 μL of 20 μM substrate.
(§2) The enzyme and the compound of Formula I to be assayed are allowed to preincubate in the microtitre plate wells for 30 minutes at room temperature prior to the addition of substrate to initiate the reaction. Fluorescent AMC product formation is monitored for one hour at room temperature by measuring the fluorescence emission at 460 nm using an excitation wavelength of 360 nm. The fluorescence change in duplicate (control) wells are averaged and the mean values are plotted as a function of inhibitor concentration to determine the inhibitor concentration producing 50% inhibition (IC50).
(§3) The activity of a representative compound of this invention (i.e., Compound No. 1) was evaluated according to the procedures disclosed in Example 1. More specifically, the IC50 and Ki for Compound No. 1 were determined as set forth above. The IC50 results are provided in Table 2, as run against Cbz-ValAlaAsp-H as a reference control.

Experiment [7] concerns the target T7, Csp-7 (Homo sapiens, UniProt P55210).
T7 sequence (P55210 24-198 limits assumed): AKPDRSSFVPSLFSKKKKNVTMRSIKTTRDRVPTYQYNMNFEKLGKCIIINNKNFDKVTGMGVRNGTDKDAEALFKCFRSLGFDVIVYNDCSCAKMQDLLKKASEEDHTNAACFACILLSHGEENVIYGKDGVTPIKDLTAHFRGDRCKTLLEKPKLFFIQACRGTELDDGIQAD
Briefly: Fluorescence enzyme assay, IC50 determination. Type of experiment: biochemical. Conditions: 30 minutes preincubation at room temperature, AMC substrate. The procedure: as §1, §2, §3

In experiment [8] the target is T8, Csp-8 (Homo sapiens, UniProt Q14790). Briefly: Fluorescence enzyme assay, IC50 determination. Format: biochemical. The following applies: 30 minutes preincubation at room temperature, AMC substrate. The procedure:
as §1, §2, §3

The target of experiment [9] is T9, Csp-6 (Homo sapiens, UniProt P55212).
T9 sequence (P55212 24-179 limits assumed): T3 sequence (looked up) 1
The experiment can be described thus: Fluorescence enzyme assay, IC50 determination. Type of experiment: biochemical. The following applies: 30 minutes preincubation at room temperature, AMC substrate. The procedure:
as §1, §2, §3

For experiment [10], the target named is T10, Csp-1 (Homo sapiens, UniProt P29466).
T10 sequence (P29466 120-297 limits assumed): T2 sequence (looked up) 1
The experiment can be described thus: Fluorescence enzyme assay, IC50 determination. Format: biochemical. The following applies: recombinant enzyme, 30 minutes preincubation at room temperature, AMC substrate. The procedure:
as §1, §2, §3

Experiment [11] deals with T6, Csp-3. Briefly: Continuous assay for dissociation constant Ki of irreversible inhibitors. Format: biochemical. The following applies: continuous assay for sixty minutes, reaction initiated by adding enzyme to substrate-inhibitor mixture. The text has this: (§4) For the irreversible inhibition of a ICE/ced-3 Family Protease enzyme with a competitive irreversible inhibitor; using the model represented by the following formulas: [drawing 16] The product formation at time t may be expressed as: [formula] where E, I, EI and E-I denote the active enzyme, inhibitor, non-covalent enzyme-inhibitor complex and covalent enzyme-inhibitor adduct, respectively. The Ki value is the overall dissociation constant of the reversible binding steps, and k3 is the irreversible rate constant. The [S] and Ks values are the substrate concentration and dissociation constant of the substrate bound to the enzyme, respectively. [E]^T is the total enzyme concentration.
(§5) The equations set forth in Example I were also used determine the Ki values of inhibitor (i.e., Compound No. 1) bound to a ICE/ced-3 family protease. Thus, a continuous assay was run for sixty minutes at various concentrations of the inhibitor and the substrate. The assay was formulated essentially the same as described above for generating the data in Table 2, except that the reaction was initiated by adding the enzyme to the substrate-inhibitor mixture. The Ki values were obtained by simulating the product AMC formation as a function of time according to Equation I. The results of this second assay are set forth below in Table 3, wherein the reference compound was Cbz-ValAlaAsp-CH2F.

Experiment [12] addresses T8, Csp-8. The description is as above. Format: biochemical. Conditions: continuous assay for sixty minutes, reaction initiated by adding enzyme to substrate-inhibitor mixture.
Excerpt: as §4, §5

Experiment [13] has as its target T9, Csp-6. The description is as above. Format: biochemical. The following applies: continuous assay for sixty minutes, reaction initiated by adding enzyme to substrate-inhibitor mixture.
Excerpt: as §4, §5

Experiment [14] has as its target T10, Csp-1. The experiment is described as above. The following applies: continuous assay for sixty minutes, reaction initiated by adding enzyme to substrate-inhibitor mixture. Format: biochemical.
Excerpt: as §4, §5

For experiment [15], the target named is T11, Csp-9 (UniProt P55211 1-416, limits assumed).
T11 sequence (looked up): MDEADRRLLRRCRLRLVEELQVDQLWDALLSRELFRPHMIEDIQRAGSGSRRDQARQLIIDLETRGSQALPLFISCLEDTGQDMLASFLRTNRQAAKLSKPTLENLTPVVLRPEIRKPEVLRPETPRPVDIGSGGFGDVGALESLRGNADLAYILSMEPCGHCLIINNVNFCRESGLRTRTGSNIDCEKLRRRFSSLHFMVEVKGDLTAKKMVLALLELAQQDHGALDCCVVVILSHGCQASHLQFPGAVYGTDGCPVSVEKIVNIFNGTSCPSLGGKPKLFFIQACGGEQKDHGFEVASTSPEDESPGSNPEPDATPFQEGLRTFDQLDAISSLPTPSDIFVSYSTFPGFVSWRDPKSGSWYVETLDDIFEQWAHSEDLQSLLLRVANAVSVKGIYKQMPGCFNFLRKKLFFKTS
The experiment can be described thus: cell-based or functional assay.

For experiment [16], the target named is T1, Csp-8. The experiment can be described thus: cell-based or functional assay.
Experiment [17] deals with T12, Csp-7 (UniProt P55210 24-303, limits assumed).
T12 sequence (looked up): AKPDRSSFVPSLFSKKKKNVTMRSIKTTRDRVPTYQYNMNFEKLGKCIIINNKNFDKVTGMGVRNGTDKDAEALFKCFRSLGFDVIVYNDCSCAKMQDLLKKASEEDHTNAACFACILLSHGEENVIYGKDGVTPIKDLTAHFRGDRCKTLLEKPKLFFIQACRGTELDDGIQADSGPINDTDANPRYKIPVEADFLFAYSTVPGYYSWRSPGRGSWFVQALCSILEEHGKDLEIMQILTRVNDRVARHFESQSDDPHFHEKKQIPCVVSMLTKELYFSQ
Briefly: cell-based or functional assay.

The target of experiment [18] is T2, Csp-1. Briefly: cell-based or functional assay.
Experiment [19] concerns the target T3, Csp-6. The experiment can be described thus: cell-based or functional assay.
Experiment [20] has as its target T4, Csp-3. The experiment can be described thus: cell-based or functional assay.

T8 sequence (Q14790 217-374 limits assumed): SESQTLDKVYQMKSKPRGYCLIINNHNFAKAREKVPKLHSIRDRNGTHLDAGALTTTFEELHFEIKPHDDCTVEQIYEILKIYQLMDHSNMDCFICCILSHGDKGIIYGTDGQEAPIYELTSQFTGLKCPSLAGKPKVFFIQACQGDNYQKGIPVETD
T1 sequence (Q14790 217-374 limits assumed, form in doubt, chain 1 of 2): as the sequence (Q14790 217-374 limits assumed) above
T1 sequence (Q14790 385-479 limits assumed, form in doubt, chain 2 of 2): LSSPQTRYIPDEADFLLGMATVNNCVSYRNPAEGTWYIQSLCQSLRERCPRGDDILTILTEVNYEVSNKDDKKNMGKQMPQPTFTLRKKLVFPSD

Turning to Cbz-Val-Ala-Asp-CH2F, the Ki with Csp-8 [1] was found to be 18 nM; in the experiment with Csp-1 [2], 15 nM; with Csp-6 [3], 594 nM; with Csp-3 [4] it was 820 nM.
Turning to `CC(C)C(NC(=O)COc1cccc2ccccc12)C(=O)NC(CC(=O)NS(C)(=O)=O)C(=O)COc1c(F)c(F)cc(F)c1F` (centres unmarked) [Compound 1], the IC50 at Csp-9 [5] turned out to be 5 nM; at Csp-3 [6], 2 nM; against Csp-7 [7], 4 nM; at Csp-8 [8], 6 nM; on Csp-6 [9], 2 nM; at Csp-1 [10], 4 nM. The Ki at Csp-3 [11] worked out at 80 nM; on Csp-8 [12], 600 nM; on Csp-6 [13], 400 nM; at Csp-1 [14], 200 nM.
On to Cbz-Val-Ala-Asp-{aldehyde′} [Cbz-ValAlaAsp-H], for which the “IC50 (µM), inhibition of enzyme activity, fluorogenic substrate” value was 0.87 µM with Csp-9 [15]; 2.96 µM with Csp-8 [16]; greater than 10 µM with Csp-7 [17]; 0.064 µM with Csp-1 [18]; greater than 10 µM with Csp-6 [19]; 47 µM with Csp-3 [20].

(Values after US6969703B2, “Inhibitors of the ICE/ced-3 family of cysteine proteases” (Idun Pharmaceuticals, Inc., priority 2000, dated 2005).)
